Experimental data as given in publication PMC8254039, “Oxalate decarboxylase uses electron hole hopping for catalysis” (The Journal of Biological Chemistry, 2021).
Numbering of substitutions follows the chain as printed. Names and notes keep the numbering of the source.

How the values were obtained:
purified protein = substrate: O=C(O)C(=O)O; experiment: purified protein; details: pH 4.2, 25 °C
[1] = target: the molecule itself; experiment: native gel or EMSA; native PAGE of the mutant proteins after purification, compared with WT (Fig. S3); self-assembly of the subunits
[2] = 50 mM poly buffer, 500 mM NaCl, Triton X-100, o-phenylenediamine, 1.93 Mn per subunit
[3] = same buffer, 1.89 Mn per subunit
[4] = same buffer, 1.34 Mn per subunit
[5] = same buffer, 0.58 Mn per subunit
[6] = same buffer, 0.33 Mn per subunit
[7] = same buffer, 0.55 Mn per subunit

B1: oxalate decarboxylase (OxDC) of Bacillus subtilis, wild type, His6-tagged (enzyme)
chain: MKKQNDIPQPIRGDKGATVKIPRNIERDRQNPDMLVPPETDHGTVSNMKFSFSDTHNRLEKGGYAREVTVRELPISENLASVNMRLKPGAIRELHWHKEAEWAYMIYGSARVTIVDEKGRSFIDDVGEGDLWYFPSGLPHSIQALEEGAEFLLVFDDGSFSENSTFQLTDWLAHTPKEVIAANFGVTKEEISNLPGKEKYIFENQLPGSLKDDIVEGPNGEVPYPFTYRLLEQEPIESEGGKVYIADSTNFKVSKTIASALVTVEPGAMRELHWHPNTHEWQYYISGKARMTVFASDGHARTFNYQAGDVGYVPFAMGHYVENIGDEPLVFLEIFKDDHYADVSLNQWLAMLPETFVQAHLDLGKDFTDVLSKEKHPVVKKKCSK
notes: oxalate decarboxylase (OxDC), Bacillus subtilis, YvrK gene; Vector printed as PET32A with the YvrK gene; also called WT OxDC; WT; source: E. coli (overexpressed), purified (nickel-NTA, HiTrap Q anion exchange, Superdex 200 gel filtration)
In the case of B1, the Km (purified protein; [2]) is reported as 33.3 ± 0.4 mM, the kcat (purified protein; [2]) is reported as 89.2 ± 1.4 s⁻¹ and the binding result [1] is reported as “binds”.

B2: oxalate decarboxylase (OxDC) of Bacillus subtilis, W96Y mutant, His6-tagged (enzyme)
chain: B1 chain with W96Y
notes: oxalate decarboxylase (OxDC), Bacillus subtilis, YvrK gene, with W96Y; 385 residues per subunit; Quaternary assembly in the crystal agrees with that of the hexameric wild type (5VG3); source: E. coli (overexpressed), purified (nickel-NTA, HiTrap Q anion exchange, Superdex 200 gel filtration)
B2: binds [1].

B3: oxalate decarboxylase (OxDC) (Bacillus subtilis subsp. subtilis str. 168; W274Y) (protein)
chain: B1 chain with W274Y
B3 gave a Km (purified protein; [3]) of 10.3 ± 3.1 mM and a kcat (purified protein; [3]) of 23.9 ± 2.8 s⁻¹.

B4: oxalate decarboxylase (OxDC) (Bacillus subtilis subsp. subtilis str. 168; W96Y) (protein)
chain: B1 chain with W96Y
B4 showed a Km (purified protein; [4]) of 3.7 ± 0.9 mM and a kcat (purified protein; [4]) of 5.3 ± 0.9 s⁻¹.

B5: oxalate decarboxylase (OxDC) of Bacillus subtilis, W274F mutant, His6-tagged (enzyme)
chain: B1 chain with W274F
notes: oxalate decarboxylase (OxDC), Bacillus subtilis, YvrK gene, with W274F; 385 residues per subunit; Said to assemble like the wild type on native PAGE; no crystal structure; source: E. coli (overexpressed), purified (nickel-NTA, HiTrap Q anion exchange, Superdex 200 gel filtration)
For B5, the Km (purified protein; [5]) was 6.7 ± 0.3 mM, the kcat (purified protein; [5]) was 1.10 ± 0.03 s⁻¹ and the binding result [1] was “binds”.

B6: oxalate decarboxylase (OxDC) of Bacillus subtilis, W274Y mutant, His6-tagged (enzyme)
chain: B1 chain with W274Y
notes: oxalate decarboxylase (OxDC), Bacillus subtilis, YvrK gene, with W274Y; 385 residues per subunit; Said to assemble like the wild type on native PAGE; no crystal structure; source: E. coli (overexpressed), purified (nickel-NTA, HiTrap Q anion exchange, Superdex 200 gel filtration)
B6: binds [1].

B7: oxalate decarboxylase (OxDC) of Bacillus subtilis, W96Y/W274Y double mutant, His6-tagged (enzyme)
chain: B1 chain with W96Y, W274Y
notes: oxalate decarboxylase (OxDC), Bacillus subtilis, YvrK gene, with W96Y and W274Y; 385 residues per subunit; Said to assemble like the wild type on native PAGE; no crystal structure; source: E. coli (overexpressed), purified (nickel-NTA, HiTrap Q anion exchange, Superdex 200 gel filtration)
B7: binds [1].

B8: oxalate decarboxylase (OxDC) of Bacillus subtilis, W96F/W274F double mutant, His6-tagged (enzyme)
chain: B1 chain with W96F, W274F
notes: oxalate decarboxylase (OxDC), Bacillus subtilis, YvrK gene, with W96F and W274F; 385 residues per subunit; Said to assemble like the wild type on native PAGE; no crystal structure; source: E. coli (overexpressed), purified (nickel-NTA, HiTrap Q anion exchange, Superdex 200 gel filtration)
B8: binds [1].

B9: oxalate decarboxylase (OxDC) (Bacillus subtilis subsp. subtilis str. 168; W274Y/W96Y) (protein)
chain: B1 chain with W96Y, W274Y
Work on B9 yielded a Km (purified protein; [6]) of 5.6 ± 0.5 mM and a kcat (purified protein; [6]) of 0.20 ± 0.01 s⁻¹.

B10: oxalate decarboxylase (OxDC) of Bacillus subtilis, W96F mutant, His6-tagged (enzyme)
chain: B1 chain with W96F
notes: oxalate decarboxylase (OxDC), Bacillus subtilis, YvrK gene, with W96F; 385 residues per subunit; Quaternary assembly in the crystal agrees with that of the hexameric wild type (5VG3); source: E. coli (overexpressed), purified (nickel-NTA, HiTrap Q anion exchange, Superdex 200 gel filtration)
In the case of B10, the Km (purified protein; [7]) is reported as 16.0 ± 1.5 mM, the kcat (purified protein; [7]) is reported as 1.00 ± 0.03 s⁻¹ and the binding result [1] is reported as “binds”.
